{
  "source": "patent US20240261333A1",
  "about": "“NOVEL TARGETS FOR ENHANCING ANTI-TUMOR IMMUNITY” (THE BROAD INSTITUTE, INC., priority 2021, published 2024)",
  "assay_in_all_cases": "co-IP, IgG control, lysate of cells with N-FLAG B3GNT2; mass spectrometry",
  "key": {"PRRC2A (human)": {"target": "PRRC2A (human) (UniProt P48634)", "sequence (P48634 whole entry)": "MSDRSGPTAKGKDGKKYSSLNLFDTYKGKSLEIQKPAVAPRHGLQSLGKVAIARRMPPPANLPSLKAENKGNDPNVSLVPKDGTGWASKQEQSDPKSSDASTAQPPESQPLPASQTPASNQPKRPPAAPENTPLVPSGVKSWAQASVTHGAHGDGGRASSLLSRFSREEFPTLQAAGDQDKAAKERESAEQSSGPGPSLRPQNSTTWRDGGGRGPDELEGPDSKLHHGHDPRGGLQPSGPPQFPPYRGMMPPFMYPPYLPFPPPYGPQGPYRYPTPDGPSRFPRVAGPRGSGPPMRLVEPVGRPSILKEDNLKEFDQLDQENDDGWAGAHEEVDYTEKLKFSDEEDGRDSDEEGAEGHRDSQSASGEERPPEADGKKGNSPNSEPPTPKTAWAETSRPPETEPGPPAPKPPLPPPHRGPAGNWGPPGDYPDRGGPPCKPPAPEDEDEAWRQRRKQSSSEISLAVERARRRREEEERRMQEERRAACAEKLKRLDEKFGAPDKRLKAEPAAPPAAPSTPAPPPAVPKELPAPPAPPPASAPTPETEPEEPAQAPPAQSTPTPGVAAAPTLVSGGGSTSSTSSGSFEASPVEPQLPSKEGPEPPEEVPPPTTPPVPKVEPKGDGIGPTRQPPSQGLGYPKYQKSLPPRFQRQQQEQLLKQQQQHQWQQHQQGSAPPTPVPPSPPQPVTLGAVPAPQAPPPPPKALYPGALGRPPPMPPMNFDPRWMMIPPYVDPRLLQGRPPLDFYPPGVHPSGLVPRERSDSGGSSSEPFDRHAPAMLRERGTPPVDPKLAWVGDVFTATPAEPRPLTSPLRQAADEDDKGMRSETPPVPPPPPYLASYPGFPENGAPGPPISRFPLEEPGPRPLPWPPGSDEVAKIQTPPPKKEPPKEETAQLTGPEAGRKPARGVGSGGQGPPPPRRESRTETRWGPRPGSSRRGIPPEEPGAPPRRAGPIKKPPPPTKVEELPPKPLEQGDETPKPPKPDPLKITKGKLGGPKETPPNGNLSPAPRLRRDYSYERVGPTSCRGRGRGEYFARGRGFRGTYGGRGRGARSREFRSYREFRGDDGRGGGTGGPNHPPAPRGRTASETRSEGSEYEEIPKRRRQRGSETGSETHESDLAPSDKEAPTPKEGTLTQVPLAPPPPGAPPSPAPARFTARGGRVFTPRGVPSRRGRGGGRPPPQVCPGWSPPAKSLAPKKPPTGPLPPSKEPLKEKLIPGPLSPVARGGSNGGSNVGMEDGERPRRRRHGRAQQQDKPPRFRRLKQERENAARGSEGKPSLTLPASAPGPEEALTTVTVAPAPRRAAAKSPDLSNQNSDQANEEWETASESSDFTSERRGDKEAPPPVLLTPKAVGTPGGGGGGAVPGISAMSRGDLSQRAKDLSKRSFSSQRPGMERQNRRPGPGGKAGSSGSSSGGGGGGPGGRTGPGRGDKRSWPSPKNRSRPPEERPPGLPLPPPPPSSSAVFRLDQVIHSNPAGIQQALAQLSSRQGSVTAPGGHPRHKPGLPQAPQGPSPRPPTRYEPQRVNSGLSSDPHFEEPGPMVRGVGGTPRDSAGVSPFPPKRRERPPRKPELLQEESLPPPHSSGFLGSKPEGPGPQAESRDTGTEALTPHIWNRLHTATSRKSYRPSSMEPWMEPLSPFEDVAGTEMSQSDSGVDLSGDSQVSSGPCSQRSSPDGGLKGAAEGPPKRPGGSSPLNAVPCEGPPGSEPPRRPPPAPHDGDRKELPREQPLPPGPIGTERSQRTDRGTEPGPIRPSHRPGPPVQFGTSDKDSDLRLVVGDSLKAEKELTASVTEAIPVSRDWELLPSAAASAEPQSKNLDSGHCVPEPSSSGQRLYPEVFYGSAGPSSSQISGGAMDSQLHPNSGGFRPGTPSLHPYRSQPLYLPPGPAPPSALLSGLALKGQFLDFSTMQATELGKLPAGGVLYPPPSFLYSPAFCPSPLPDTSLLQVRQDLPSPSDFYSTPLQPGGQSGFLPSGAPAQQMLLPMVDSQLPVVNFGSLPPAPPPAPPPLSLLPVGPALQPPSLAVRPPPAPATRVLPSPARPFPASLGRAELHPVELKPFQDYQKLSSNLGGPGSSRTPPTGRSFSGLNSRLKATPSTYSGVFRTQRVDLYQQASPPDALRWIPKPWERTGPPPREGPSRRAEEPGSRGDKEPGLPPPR"}, "HNRNPA2B1 (human)": {"target": "HNRNPA2B1 (human) (UniProt P22626)"}, "GGCT (human)": {"target": "GGCT (human) (UniProt O75223)"}, "MOV10 (human)": {"target": "T1, MOV10 (human) (UniProt Q9HCE1)", "T1 sequence (looked up)": "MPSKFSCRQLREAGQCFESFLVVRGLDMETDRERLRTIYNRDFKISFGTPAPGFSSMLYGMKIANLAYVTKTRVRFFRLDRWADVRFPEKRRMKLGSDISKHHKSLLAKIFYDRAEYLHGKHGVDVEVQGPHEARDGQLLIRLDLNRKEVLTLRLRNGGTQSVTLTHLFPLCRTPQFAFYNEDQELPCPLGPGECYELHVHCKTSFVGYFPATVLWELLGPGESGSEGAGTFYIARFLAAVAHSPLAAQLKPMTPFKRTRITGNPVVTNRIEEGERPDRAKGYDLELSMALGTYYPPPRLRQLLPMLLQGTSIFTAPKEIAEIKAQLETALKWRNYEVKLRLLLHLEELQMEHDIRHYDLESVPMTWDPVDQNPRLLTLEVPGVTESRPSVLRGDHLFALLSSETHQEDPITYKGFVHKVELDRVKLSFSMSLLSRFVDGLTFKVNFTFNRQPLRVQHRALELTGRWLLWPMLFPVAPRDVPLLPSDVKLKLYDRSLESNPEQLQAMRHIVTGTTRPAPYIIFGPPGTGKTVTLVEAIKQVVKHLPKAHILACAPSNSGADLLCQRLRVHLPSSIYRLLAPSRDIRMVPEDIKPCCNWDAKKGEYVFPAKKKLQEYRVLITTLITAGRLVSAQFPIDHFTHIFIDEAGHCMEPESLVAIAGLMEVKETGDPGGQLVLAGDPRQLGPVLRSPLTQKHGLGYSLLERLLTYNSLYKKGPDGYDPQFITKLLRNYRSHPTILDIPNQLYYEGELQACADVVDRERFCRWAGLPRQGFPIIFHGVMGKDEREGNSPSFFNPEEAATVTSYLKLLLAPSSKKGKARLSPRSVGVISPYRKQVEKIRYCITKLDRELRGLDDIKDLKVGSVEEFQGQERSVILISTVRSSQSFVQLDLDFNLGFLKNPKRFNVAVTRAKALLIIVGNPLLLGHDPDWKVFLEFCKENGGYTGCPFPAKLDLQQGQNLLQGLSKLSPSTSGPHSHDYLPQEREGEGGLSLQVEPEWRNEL"}, "EIF5B (human)": {"target": "EIF5B (human) (UniProt O60841)"}, "SPTAN1 (human)": {"target": "SPTAN1 (human) (UniProt Q13813)"}, "NUFIP2 (human)": {"target": "NUFIP2 (human) (UniProt Q7Z417)"}, "SERBP1 (human)": {"target": "T2, SERBP1 (human) (UniProt Q8NC51)", "T2 sequence (looked up)": "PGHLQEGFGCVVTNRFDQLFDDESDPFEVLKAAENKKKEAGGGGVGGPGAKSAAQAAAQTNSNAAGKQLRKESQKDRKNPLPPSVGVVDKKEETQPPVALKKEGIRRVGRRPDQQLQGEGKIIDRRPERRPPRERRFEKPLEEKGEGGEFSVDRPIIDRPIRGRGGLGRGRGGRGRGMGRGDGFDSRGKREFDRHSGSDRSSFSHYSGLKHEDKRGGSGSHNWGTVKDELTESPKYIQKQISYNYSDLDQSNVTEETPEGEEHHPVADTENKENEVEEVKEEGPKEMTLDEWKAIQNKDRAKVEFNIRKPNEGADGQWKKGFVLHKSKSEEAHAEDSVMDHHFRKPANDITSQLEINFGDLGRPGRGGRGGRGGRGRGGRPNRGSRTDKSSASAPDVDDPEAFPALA"}, "LMNA (human)": {"target": "LMNA (human) (UniProt P02545)"}, "RBM39 (human)": {"target": "RBM39 (human) (UniProt Q14498)", "sequence (Q14498 other isoform, or with tags, fused parts or gaps limits assumed)": "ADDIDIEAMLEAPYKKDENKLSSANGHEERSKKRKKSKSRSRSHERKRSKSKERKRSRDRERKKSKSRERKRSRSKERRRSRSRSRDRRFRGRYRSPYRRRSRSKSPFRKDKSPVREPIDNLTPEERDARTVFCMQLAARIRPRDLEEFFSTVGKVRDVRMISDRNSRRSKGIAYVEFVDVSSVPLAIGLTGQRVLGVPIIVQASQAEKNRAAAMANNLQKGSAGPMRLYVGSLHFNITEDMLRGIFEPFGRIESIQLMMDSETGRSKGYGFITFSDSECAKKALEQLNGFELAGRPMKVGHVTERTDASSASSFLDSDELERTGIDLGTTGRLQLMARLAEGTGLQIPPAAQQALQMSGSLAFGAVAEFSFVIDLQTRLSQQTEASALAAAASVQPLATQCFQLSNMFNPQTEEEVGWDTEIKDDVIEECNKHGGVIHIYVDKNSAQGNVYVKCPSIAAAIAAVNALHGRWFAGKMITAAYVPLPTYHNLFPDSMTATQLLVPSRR"}, "FAU (human)": {"target": "FAU (human) (UniProt P62861)"}, "DDX5 (human)": {"target": "DDX5 (human) (UniProt P17844)", "sequence (P17844 whole entry)": "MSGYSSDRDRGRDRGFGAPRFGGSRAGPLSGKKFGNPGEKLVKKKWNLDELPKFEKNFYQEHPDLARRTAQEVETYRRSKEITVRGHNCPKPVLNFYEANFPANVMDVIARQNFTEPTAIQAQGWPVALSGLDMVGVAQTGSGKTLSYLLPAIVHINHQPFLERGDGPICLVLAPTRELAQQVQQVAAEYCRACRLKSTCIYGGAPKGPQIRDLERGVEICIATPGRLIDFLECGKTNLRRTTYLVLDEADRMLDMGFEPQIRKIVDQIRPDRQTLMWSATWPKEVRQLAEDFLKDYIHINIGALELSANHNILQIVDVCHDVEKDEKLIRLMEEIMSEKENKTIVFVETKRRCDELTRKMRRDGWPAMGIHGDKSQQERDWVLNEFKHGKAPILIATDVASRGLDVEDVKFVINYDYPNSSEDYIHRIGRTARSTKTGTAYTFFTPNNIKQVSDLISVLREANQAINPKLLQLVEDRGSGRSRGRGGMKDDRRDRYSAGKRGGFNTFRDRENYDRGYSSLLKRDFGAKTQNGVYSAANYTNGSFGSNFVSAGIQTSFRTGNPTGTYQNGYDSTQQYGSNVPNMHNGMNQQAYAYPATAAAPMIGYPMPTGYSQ"}, "LSM12 (human)": {"target": "LSM12 (human) (UniProt Q3MHD2)"}, "KRT4 (human)": {"target": "KRT4 (human) (UniProt P19013)", "sequence (P19013 whole entry)": "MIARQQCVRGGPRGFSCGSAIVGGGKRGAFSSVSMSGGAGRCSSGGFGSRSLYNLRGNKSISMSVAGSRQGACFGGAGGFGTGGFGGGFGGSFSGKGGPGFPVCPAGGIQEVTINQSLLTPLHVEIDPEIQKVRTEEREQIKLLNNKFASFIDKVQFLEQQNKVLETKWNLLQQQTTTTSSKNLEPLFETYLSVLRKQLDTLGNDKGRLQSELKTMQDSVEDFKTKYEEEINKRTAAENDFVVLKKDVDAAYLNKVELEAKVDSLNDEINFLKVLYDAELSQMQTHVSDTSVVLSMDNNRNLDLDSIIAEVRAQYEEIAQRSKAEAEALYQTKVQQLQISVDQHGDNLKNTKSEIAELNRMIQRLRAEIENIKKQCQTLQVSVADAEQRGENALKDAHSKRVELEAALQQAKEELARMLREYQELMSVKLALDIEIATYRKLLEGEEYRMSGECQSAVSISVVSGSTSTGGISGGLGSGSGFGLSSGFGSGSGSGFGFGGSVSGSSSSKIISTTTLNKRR"}, "HNRNPK (human)": {"target": "HNRNPK (human) (UniProt P61978)"}, "HSPA8 (human)": {"target": "HSPA8 (human) (UniProt P11142)", "sequence (P11142 2-646 limits assumed)": "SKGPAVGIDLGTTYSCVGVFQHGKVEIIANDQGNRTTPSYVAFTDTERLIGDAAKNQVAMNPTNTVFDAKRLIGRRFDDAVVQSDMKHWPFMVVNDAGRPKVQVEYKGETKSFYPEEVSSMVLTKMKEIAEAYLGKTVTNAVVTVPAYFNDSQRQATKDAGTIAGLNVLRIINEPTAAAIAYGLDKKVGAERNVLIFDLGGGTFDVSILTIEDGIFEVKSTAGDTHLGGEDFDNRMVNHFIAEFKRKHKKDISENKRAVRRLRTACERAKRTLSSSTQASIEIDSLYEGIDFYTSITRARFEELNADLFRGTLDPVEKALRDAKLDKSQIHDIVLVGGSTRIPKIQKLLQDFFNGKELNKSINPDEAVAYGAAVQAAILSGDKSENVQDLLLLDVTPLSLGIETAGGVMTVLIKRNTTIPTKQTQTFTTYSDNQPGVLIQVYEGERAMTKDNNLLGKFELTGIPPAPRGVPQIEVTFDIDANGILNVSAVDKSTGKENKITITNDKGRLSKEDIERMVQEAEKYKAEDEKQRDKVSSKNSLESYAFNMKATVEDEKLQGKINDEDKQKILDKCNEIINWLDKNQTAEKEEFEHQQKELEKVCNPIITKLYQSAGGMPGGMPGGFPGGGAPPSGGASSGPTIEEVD"}, "PRBP1 (human)": {"target": "PRBP1 (human) (UniProt P26599)", "sequence (P26599 whole entry)": "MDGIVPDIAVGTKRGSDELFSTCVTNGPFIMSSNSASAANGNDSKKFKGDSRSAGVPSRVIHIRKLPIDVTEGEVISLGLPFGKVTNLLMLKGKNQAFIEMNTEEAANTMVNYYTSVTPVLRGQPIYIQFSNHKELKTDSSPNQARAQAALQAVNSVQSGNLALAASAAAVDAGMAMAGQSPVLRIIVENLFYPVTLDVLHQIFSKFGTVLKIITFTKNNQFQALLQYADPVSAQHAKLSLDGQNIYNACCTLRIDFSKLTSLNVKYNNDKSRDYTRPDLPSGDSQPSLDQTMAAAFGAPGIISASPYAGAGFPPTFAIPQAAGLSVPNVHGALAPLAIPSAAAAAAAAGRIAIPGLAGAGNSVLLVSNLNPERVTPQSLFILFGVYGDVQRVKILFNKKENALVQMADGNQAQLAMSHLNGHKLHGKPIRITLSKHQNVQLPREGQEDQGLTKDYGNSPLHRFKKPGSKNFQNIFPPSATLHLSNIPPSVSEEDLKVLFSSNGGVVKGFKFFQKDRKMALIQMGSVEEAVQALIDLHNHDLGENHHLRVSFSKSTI"}, "G3BP1 (human)": {"target": "G3BP1 (human) (UniProt Q13283)"}, "RPL10 (human)": {"target": "RPL10 (human) (UniProt P27635)"}, "RPL4 (human)": {"target": "RPL4 (human) (UniProt P36578)"}, "C1orf68 (human)": {"target": "C1orf68 (human) (UniProt Q5T750)"}},
  "data": [
    {"substance": "IgG control (Millipore Sigma 12-371) (antibody)", "values": [
      {"measurement": "co-IP mass spectrometry count", "setting": "PRRC2A (human)", "result": 3},
      {"measurement": "co-IP mass spectrometry count", "setting": "HNRNPA2B1 (human)", "result": 4},
      {"measurement": "co-IP mass spectrometry count", "setting": "GGCT (human)", "result": 0},
      {"measurement": "co-IP mass spectrometry count", "setting": "MOV10 (human)", "result": 3},
      {"measurement": "co-IP mass spectrometry count", "setting": "EIF5B (human)", "result": 0},
      {"measurement": "co-IP mass spectrometry count", "setting": "SPTAN1 (human)", "result": 0},
      {"measurement": "co-IP mass spectrometry count", "setting": "NUFIP2 (human)", "result": 3},
      {"measurement": "co-IP mass spectrometry count", "setting": "SERBP1 (human)", "result": 4},
      {"measurement": "co-IP mass spectrometry count", "setting": "LMNA (human)", "result": 11},
      {"measurement": "co-IP mass spectrometry count", "setting": "RBM39 (human)", "result": 5},
      {"measurement": "co-IP mass spectrometry count", "setting": "FAU (human)", "result": 6},
      {"measurement": "co-IP mass spectrometry count", "setting": "DDX5 (human)", "result": 18},
      {"measurement": "co-IP mass spectrometry count", "setting": "LSM12 (human)", "result": 2},
      {"measurement": "co-IP mass spectrometry count", "setting": "KRT4 (human)", "result": 21},
      {"measurement": "co-IP mass spectrometry count", "setting": "HNRNPK (human)", "result": 8},
      {"measurement": "co-IP mass spectrometry count", "setting": "HSPA8 (human)", "result": 16},
      {"measurement": "co-IP mass spectrometry count", "setting": "PRBP1 (human)", "result": 7},
      {"measurement": "co-IP mass spectrometry count", "setting": "G3BP1 (human)", "result": 29},
      {"measurement": "co-IP mass spectrometry count", "setting": "RPL10 (human)", "result": 3},
      {"measurement": "co-IP mass spectrometry count", "setting": "RPL4 (human)", "result": 11},
      {"measurement": "co-IP mass spectrometry count", "setting": "C1orf68 (human)", "result": 0}
    ]}
  ]
}
